Reference: US5849261
“And” between values parts separate entries of the source, which are not always exact repeats. Equal values may be shown once. No end group written: not given here.

Columns and labels:
[1] = target: VIP receptor on human cells (human); experiment: competition with 125I-VIP on HMC1 cells
[2] = target: VIP receptor on human cells (human); experiment: competition with 125I-VIP on HT29 cells
[3] = target: VIP receptor on human cells (human); experiment: competition with 125I-VIP on human PMNCs
[4] = target: VIP receptor on human cells (human); experiment: competition with 125I-VIP on PANC1 cells
[5] = target: VIP receptor on human cells (human); experiment: competition with 125I-VIP on COLO320 cells
[6] = target: VIP receptor on human cells (human); experiment: competition with 125I-VIP on human platelets
[7] = target: VIP receptor of guinea pig lung membranes (guinea pig); experiment: competition with 0.01 nM 125I-VIP, guinea pig lung membranes
[8] = target: VIP receptor on human cells (human); experiment: competition with 125I-VIP on KU812 cells

Row | Binder | IC50 [1] | IC50 [2] | IC50 [3] | IC50 [4] | IC50 [5] | IC50 [6] | IC50 [7] | IC50 [8] | Ki [7] | % inhibition @ 0.01 µM [7]
1 | AGCHSDAVFTDNYTRLRKQMAVKKYLNSILN-NH2 (also: non-radioactive ReO complexed to the chelating moiety) [ReO-complexed P915] | 15 nM | 7 nM | 7.5 nM | 14 nM | 6.7 nM | 4.5 nM | < 10 nM and > 1 nM | – | – | –
2 | HSDAVFTDNYTRLRKQMAVKKYLNSILNGGC-NH2 (also: non-radioactive ReO complexed to the chelating moiety) [ReO-complexed P916] | 7 nM | 8.5 nM | 6.5 nM | 12.5 nM | 4 nM | 3 nM | 20 nM | – | – | –
3 | HSDAVFTDNYTRLRKQMAVKKYLNSILNC (C-terminal C(BAT): S-(N6,N9-bis(2-mercapto-2-methylpropyl)-6,9-diazanonan-1-yl)cysteine; C-terminal amide; non-radioactive ReO complexed to the chelating moiety) [ReO-complexed P917] | 7 nM | 2.2 nM | 2.7 nM | 3.7 nM | 2 nM | 0.8 nM | 6.9 nM | 1 nM | 6.7 nM | –
4 | HSDAVFTDNYTRLRKQMAVKKYLNSILN-NH2 [Vasoactive intestinal peptide (VIP)] | 7 nM | 1.2 nM | 5.5 nM | 4.2 nM | 1.5 nM | 4 nM | – | 0.8 nM | – | –
5 | HSDAVFTDNYTRLRKQMAVKKYLNSILNKGC ((ε-K): lysine 29 linked through its ε-amino group; C-terminal amide; non-radioactive ReO complexed to the chelating moiety) [ReO-complexed P887] | 8.5 nM | 6.6 nM | 6 nM | > 10 nM | 6 nM | 6 nM | 20 nM | 5.2 nM | – | –
6 | HSDAVFTDNYTRLRKQMAVKKYLNSILNKGC ((ε-K): lysine 29 linked through its ε-amino group to the carboxyl group of the preceding residue; C-terminal amide) [P887] | – | – | – | – | – | – | < 10 nM | – | – | 68%
7 | AGCHSDAVFTDNYTRLRKQMAVKKYLNSILN-NH2 [P915] | – | – | – | – | – | – | 50 nM | – | – | –
8 | HSDAVFTDNYTRLRKQMAVKKYLNSILNGGC-NH2 [P916] | – | – | – | – | – | – | < 10 nM | – | – | 79%
9 | HSDAVFTDNYTRLRKQMAVKKYLNSILNC (C-terminal C(BAT): S-(N6,N9-bis(2-mercapto-2-methylpropyl)-6,9-diazanonan-1-yl)cysteine; C-terminal amide) [P917] | – | – | – | – | – | – | < 10 nM | – | – | 83%
